Consider 125 substances from the supplement of paper PMC12042874.

± gives the uncertainty stated by the source.

The nature of this data set: amyloid nucleation score (Sup35N fusion, yeast selection) (log enrichment); library NNK1; higher = more nucleation; inactive = no reads after selection. An outline of the steps:
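Nucleation score is defined as the DiMSum log enrichment of output over input reads, with centring on the mode score of non-aggregating sequences. A minimum of 100 input reads was required for each sequence. Reads came from Illumina sequencing of plasmid inserts from psi-negative yeast expressing Sup35N fused to peptides of 20 random codons, induced with 100 μM copper sulfate for 24 hours and grown 7 days at 30°C on medium lacking adenine and uracil.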
As to YGRQG, the amyloid nucleation score amounted to 0.123 ± 0.49.
YGSLFED came in with an amyloid nucleation score of 0.108 ± 0.77.
In turn, YGSLIHMIRNEGLNIGGKSA registered an amyloid nucleation score of -0.51 ± 0.4.
Substance YHGIPFCMFFRVYAVR showed an amyloid nucleation score of 0.216 ± 1.4.
YHWVMTASVCSPGELNYRSN came in with an amyloid nucleation score of 0.363 ± 0.78.
With YIAVGV, the amyloid nucleation score came out at 0.015 ± 0.62.
Substance YIGECLRKLIRCAHKDCEGY returned an amyloid nucleation score of -1.49 ± 1.2.
YIIVFDVNWFVKFGCFPRGS: the amyloid nucleation score result is “inactive”.
As for YIIVLA, the figure is 1.28 ± 0.61; as for YIIWFPFSKLVLMRYHRSWG, -0.005 ± 0.22.
The substance YILLLFSVVWIKKFGDCSCA displayed an amyloid nucleation score of -0.048 ± 0.35.
For the substance YIMILYRKGMFILRVFSLLL, the amyloid nucleation score is -0.293 ± 0.24.
Take YIMSGRFTNY: the amyloid nucleation score turned out to be 2.13 ± 0.28.
The substance YISKSCRWSRTASSNVCIFI displayed an amyloid nucleation score of 0.022 ± 0.33.
For the substance YKAKGRNAVS, the amyloid nucleation score is -0.689 ± 1.6.
The substance YKIGLT showed an amyloid nucleation score of -0.227 ± 0.48.
In turn, YKLPAAIDRMIVVQCNRPSI yielded an amyloid nucleation score of -0.246 ± 0.61.
With YKSCCVGITPM, the amyloid nucleation score is -0.551 ± 0.49.
As to YKSVLHSSRSGGAYGVVKSL, the amyloid nucleation score was -0.038 ± 0.45.
YKWIDRMVDERQLMSSKRQW registered an amyloid nucleation score of 0.099 ± 0.66.
YKWLLAGGNTKCSKVRNAYW came in with an amyloid nucleation score of -0.356 ± 0.39.
As for YKYINSVQIYEHV, the amyloid nucleation score is 4.19 ± 0.13.
YLASFMNLAISVGLVDGLCG displayed an amyloid nucleation score of -1.29 ± 1.7.
As to YLFHMKARCMLFHKLLTYSR, the amyloid nucleation score entry is “inactive”.
As for YLFRLVTVFNVVKATLVVTV, the amyloid nucleation score is -0.289 ± 0.92.
The result for YLGSGCRFETSYLDATFPVS reads 0.387 ± 1; that for YLHSSGGYNFSVRVSKYNCE, -0.689 ± 0.61; that for YLLSCVGIASLGFKVFL, -0.718 ± 0.7.
Take YLMFFVYCVRLRYLSWALSQ: the amyloid nucleation score is -1.35 ± 1.9.
Substance YLMMVIRKVFVPCCNG returned an amyloid nucleation score of 0.378 ± 0.21.
Regarding YLPIKPFIYANILWGFTVSC, the amyloid nucleation score is -0.025 ± 1.
The result for YLQGENNWRVVGQRLSTSPA reads 0.03 ± 0.4.
Take YLRRSGMLAFSSSHHR: the amyloid nucleation score stood at 1.15 ± 0.4.
As for YLSCLNFRLGSMFMRSL, the amyloid nucleation score is 0.653 ± 0.93.
For YLVPELYEMSNS, the amyloid nucleation score amounted to 1.38 ± 0.79.
On to YLWSSCLGGDSANWLLY, for which the amyloid nucleation score worked out at 0.714 ± 0.32.
YMASEG: the amyloid nucleation score entry was “inactive”.
On to YMGLYWLDRRMICMQLLWTL, for which the amyloid nucleation score turned out to be 2.37 ± 0.4.
As for YMGYCYNTTKVCKLRQIYAG, the figure is 1.71 ± 0.54; as for YMHSGGQGLLCIQVSYTMSF, -0.503 ± 0.83.
The substance YMILLSLGVFFTPVPDYFAQ had an amyloid nucleation score of -0.385 ± 0.68.
The result for YMIWTIFNMVSIGRPQFLRL reads -0.716 ± 0.56.
Regarding YMKLRCMK, the amyloid nucleation score is 0.019 ± 0.6.
For the substance YMLGREMS, the amyloid nucleation score entry was “inactive”.
Substance YMSVWFVTVSMDCVGRNSRT had an amyloid nucleation score of 4.19 ± 0.058.
The result for YNAARLFPYVNVWGII reads -0.305 ± 1.3; that for YNISDSTSPMVASRMGRLGQ, 0.364 ± 0.45.
YNLYRH: the amyloid nucleation score was found to be 0.406 ± 0.51.
Consider YNNLIPTYHHWGSFHMV, for which the amyloid nucleation score worked out at 1.32 ± 0.68.
As for YNSVKVNRFH, the figure is 1.3 ± 0.74; as for YNTRTRILWARVVNRVINLW, 4.95 ± 0.072.
The result for YNVKSVCGRAPIGVMGRKWG reads 0.618 ± 0.52; that for YNVLCYFLNRFWMGYWYLLS, 1.5 ± 0.5.
As for YNWVGIDRMGFYTFSVGLVC, the figure is -0.375 ± 0.38; as for YPLPV, 0.376 ± 0.28.
Regarding YPPRAQDMTRSAQRKCQRGV, the amyloid nucleation score entry was “inactive”.
The substance YPVRFHTYVVISTFGEIGFG yielded an amyloid nucleation score of 0.822 ± 0.43.
On to YQRSTWSSWNQVRYYHEFQR, for which the amyloid nucleation score stood at 1.59 ± 0.3.
The result for YQSHLAIFFRDGHRSSKITN reads -0.008 ± 1.2.
For the substance YQWIFIHLPAVLSVGMEIRY, the amyloid nucleation score was -0.672 ± 0.49.
YRCCFLKNNPAWVQFSLRLR had an amyloid nucleation score of -0.436 ± 0.36.
As for YRFFCCVGHITSFVFLVGNV, the amyloid nucleation score stood at 5.25 ± 0.054.
Regarding YRICVKSSVQAGRLMFKVTG, the amyloid nucleation score was -1.61 ± 2.7.
With YRLRQPLPSERSLMEHSCGV, the amyloid nucleation score was 0.761 ± 0.56.
YRMGLGS gave an amyloid nucleation score of -0.455 ± 0.96.
As for YRPMYMVAEQWYYK, the amyloid nucleation score came to 0.896 ± 0.49.
Substance YRRWKPIGVMSSSWLICVES returned an amyloid nucleation score of 0.603 ± 0.43.
The result for YRSFCFRWWISSGCAGLRGS reads 0.489 ± 0.67; that for YRSSVL, -0.514 ± 0.29; that for YRTSWEAVQGWSFS, -1.64 ± 1.3.
In turn, YRYSVQVLNCAKGAENGVII came in with an amyloid nucleation score of -0.152 ± 0.32.
Substance YSAIRTKFFAA registered an amyloid nucleation score of 0.616 ± 1.1.
YSAYNRQEDLGLKIVFVLLT showed an amyloid nucleation score of 2.57 ± 0.1.
YSCGGSDSWGTTNSNLGFRH returned an amyloid nucleation score of -0.751 ± 0.66.
In turn, YSDLSVHHYFWHQFRQKCDR gave an amyloid nucleation score of 2.01 ± 0.21.
In turn, YSDPYAKWNDQR had an amyloid nucleation score of 0.784 ± 0.76.
For the substance YSECQLSRARD, the amyloid nucleation score result was “inactive”.
For the substance YSFALSVG, the amyloid nucleation score was determined as 0.874 ± 0.43.
Turning to YSFGVSTWLI, the amyloid nucleation score was -0.396 ± 0.74.
For the substance YSFRGEHSTLCLDNVVKSFQ, the amyloid nucleation score result was “inactive”.
YSGPGAQFIAMLNKLWCTAH: the amyloid nucleation score turned out to be 1.23 ± 0.24.
The result for YSIDLIPYRDYGNKTCHGIM reads 2.27 ± 0.081; that for YSISFSYHGVVCGSGSNRGV, -0.589 ± 0.63; that for YSLAMRLVPGPPQDENHTVN, -1.94 ± 1.8.
With YSLGVPSPRKILNVFGGTW, the amyloid nucleation score was -0.101 ± 0.47.
As for YSLMLFESVSSGFKCSLRFA, the figure is -0.65 ± 0.42; as for YSLNTSTAWESAAAVTW, 0.196 ± 0.4.
The result for YSLSRCSSEDMSYVYWCSRS reads 0.119 ± 0.32; that for YSLVICNQNSFPNMVDIVLG, 2.53 ± 0.074.
As for YSNWTVSTSFSNHERHVFLA, the figure is 0.839 ± 0.39; as for YSRGGFGHWFQHSL, -0.482 ± 1.7.
In turn, YSRLRVCTNSAMLELGFS gave an amyloid nucleation score of 1.03 ± 0.26.
The substance YSTYQ registered an amyloid nucleation score of 0.369 ± 0.29.
In turn, YSVDQYSNTMRLTLHMLVFV had an amyloid nucleation score of 0.455 ± 0.79.
With YSVPVCGDMLTGWYCNKYKY, the amyloid nucleation score entry was “inactive”.
Consider YSWILKKWVFVYSLFTSGHM, for which the amyloid nucleation score was found to be 0.278 ± 0.55.
YSYLV: the amyloid nucleation score was -0.716 ± 0.84.
YTCLHGGSGVPPYLFQEHYS displayed an amyloid nucleation score of 0.193 ± 0.39.
Substance YTINPRKIRGTPPPIPCRVQ had an amyloid nucleation score of 0.16 ± 0.73.
YTVLEGGALCFLKELRHRIL registered an amyloid nucleation score of -0.146 ± 0.32.
For the substance YVCIGFYSSPVLGIDFLGNK, the amyloid nucleation score was 3.53 ± 0.11.
As for YVCPRSWVVRVRHQKTFQSY, the figure is -0.374 ± 0.81; as for YVFSCTGLNR, -1.03 ± 1.
Take YVFSLVSESLQIIYHPLLLL: the amyloid nucleation score was -0.189 ± 0.41.
Take YVIKKWTTCVLDFWHHFSFR: the amyloid nucleation score worked out at 0.583 ± 0.48.
YVILFVIVVGSA registered an amyloid nucleation score of 0.654 ± 0.84.
For YVLRPFGLLKWSNSVGPHER, the amyloid nucleation score is -0.106 ± 1.2.
With YVMDMIYFYDGLVWSCLCWI, the amyloid nucleation score result is “inactive”.
Take YVNFLGLLDCEL: the amyloid nucleation score was -0.028 ± 0.48.
As to YVRRSCSSRESYSCNCLYVY, the amyloid nucleation score came out at 0.532 ± 0.92.
As for YVSCFRG, the amyloid nucleation score was determined as 0.925 ± 0.3.
As to YVSVVCLFVPDKFRNVTDL, the amyloid nucleation score came to 6.87 ± 0.073.
For the substance YVSYRIVLGRMPGMKHSRKR, the amyloid nucleation score stood at 3.6 ± 0.088.
YVVLASVMLITYVRA yielded an amyloid nucleation score of 0.786 ± 0.38.
YVVNGYSICGFDAEVIVLQL came in with an amyloid nucleation score of 1.19 ± 0.18.
In turn, YWCAISSVSLKFLVMSYLSG registered an amyloid nucleation score of -0.362 ± 1.1.
Regarding YWDKMTLTKNFKWLDLLGVG, the amyloid nucleation score entry is “inactive”.
The result for YWKSIRPILIEC reads “inactive”.
On to YWNMTCNTV, for which the amyloid nucleation score is -0.139 ± 0.52.
In turn, YWSLVVAAWRMENGWHGFLL yielded an amyloid nucleation score of 0.059 ± 0.39.
In turn, YYFIFII came in with an amyloid nucleation score of 4.79 ± 0.074.
As for YYLSLMYSTLYRTKIFWARE, the figure is -0.077 ± 0.79.
As for YYNVCHNRINLVTSWFFYRR, the figure is 0.946 ± 0.78; as for YYTCGMYPIYRCCLRTMYSA, -0.494 ± 0.22.
The substance YYWVT showed an amyloid nucleation score of -1.16 ± 2.4.
